Test results reported in PMC10925001 (2024).

Biological target: covalently-linked IL-2/SD-01 complex (human, UniProt P60568 21-153)
Experiment: SPR

- koff: 0.0048 s⁻¹
B1: his-tagged human IL-2Rα (receptor)
chain: ELCDDDPPEIPHATFKAMAYKEGTMLNCECKRGFRRIKSGSLYMLCTGNSSHSSWDNQCQCTSSATRNTTKQVTPQPEEQKERKTTEMQSPMQPVDQASLPGHCREPPPWENEATERIYHFVVGQMVYYQCVQGYRALHRGPAESVCKMTHGKTRWTQPQLICTGEMETSQFPGEEKPQASPEGRPESETSCLVTTTDFQIQTEMAATMETSIFTTEYQ
